T1: TJP3_3, O95049
T1 sequence (O95049 375-456, limits assumed, looked up): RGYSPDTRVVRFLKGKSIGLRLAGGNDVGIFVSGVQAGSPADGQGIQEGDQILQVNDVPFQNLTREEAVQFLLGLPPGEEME

T2: PDZD2_2, O15018
T2 sequence (O15018 329-429, limits assumed, looked up): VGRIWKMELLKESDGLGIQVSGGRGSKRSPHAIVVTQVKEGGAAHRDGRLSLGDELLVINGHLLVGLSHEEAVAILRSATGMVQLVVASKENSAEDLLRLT

T3: SNTG1, Q9NSN8
T3 sequence (Q9NSN8 52-150, limits assumed, looked up): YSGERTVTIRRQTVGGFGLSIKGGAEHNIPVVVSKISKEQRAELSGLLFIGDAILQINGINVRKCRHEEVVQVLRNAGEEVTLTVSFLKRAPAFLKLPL

T4: HTRA4, P83105
T4 sequence (P83105 378-476, limits assumed, looked up): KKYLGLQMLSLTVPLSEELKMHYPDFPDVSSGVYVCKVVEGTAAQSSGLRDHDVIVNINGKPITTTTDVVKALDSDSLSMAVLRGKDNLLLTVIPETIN

T5: CARD11, Q9BXL7
T5 sequence (Q9BXL7 662-765, limits assumed, looked up): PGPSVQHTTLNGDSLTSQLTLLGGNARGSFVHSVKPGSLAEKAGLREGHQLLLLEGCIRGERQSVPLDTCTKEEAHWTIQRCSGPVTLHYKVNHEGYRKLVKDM

T6: NHERF3_3, Q5T2W1
T6 sequence (Q5T2W1 238-333, limits assumed, looked up): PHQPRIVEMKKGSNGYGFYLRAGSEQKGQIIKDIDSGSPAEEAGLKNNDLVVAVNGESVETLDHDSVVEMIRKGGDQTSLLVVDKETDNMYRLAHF

T7: GRIP1_2, Q9Y3R0
T7 sequence (Q9Y3R0 145-248, limits assumed, looked up): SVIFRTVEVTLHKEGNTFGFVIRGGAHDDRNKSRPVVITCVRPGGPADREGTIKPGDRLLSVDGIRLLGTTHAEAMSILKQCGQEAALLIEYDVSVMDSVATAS

T8: SIPA1L2, Q9P2F8
T8 sequence (Q9P2F8 945-1036, limits assumed, looked up): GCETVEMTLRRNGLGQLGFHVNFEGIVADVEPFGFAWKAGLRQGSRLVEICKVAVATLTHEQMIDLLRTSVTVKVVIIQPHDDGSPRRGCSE

T9: NHERF3_4, Q5T2W1
T9 sequence (Q5T2W1 373-468, limits assumed, looked up): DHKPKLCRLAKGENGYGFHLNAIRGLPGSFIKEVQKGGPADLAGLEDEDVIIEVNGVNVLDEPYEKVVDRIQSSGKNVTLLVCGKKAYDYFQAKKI

T10: SNTA1, Q13424
T10 sequence (Q13424 82-180, limits assumed, looked up): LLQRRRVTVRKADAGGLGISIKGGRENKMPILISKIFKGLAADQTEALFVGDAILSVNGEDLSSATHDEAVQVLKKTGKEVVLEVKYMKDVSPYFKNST

B1: ADRA1D, P25100 (peptide)
chain: DYSNLRETDI
B2: TNRC6B, Q9UPQ9 (peptide)
chain: DLLGGGSDSI

Legend:
Assay in all cases: holdup assay
Parameters in all cases: key: below the threshold = too weak to quantify, mostly under pKd 3.1 to 4
Conditions in all cases: plain residues with an end cap or a label only (N-terminal biotin on a linker: ado-ado)
GRIP2_4, Q9C0E4 = target: GRIP2_4, Q9C0E4
SCRIB_2, Q14160 = target: SCRIB_2, Q14160
GOPC, Q9HD26 = target: GOPC, Q9HD26
TJP3_3, O95049 = target: T1, TJP3_3, O95049
MAST1, Q9Y2H9 = target: MAST1, Q9Y2H9
PDZD2_2, O15018 = target: T2, PDZD2_2, O15018
LNX1_3, Q8TBB1 = target: LNX1_3, Q8TBB1
MAGI2_3, Q86UL8 = target: MAGI2_3, Q86UL8
PTPN3, P26045 = target: PTPN3, P26045
SNTG1, Q9NSN8 = target: T3, SNTG1, Q9NSN8
Inadl_5, Q8NI35 = target: Inadl_5, Q8NI35
FRMPD2_1, Q68DX3 = target: FRMPD2_1, Q68DX3
GRIP2_3, Q9C0E4 = target: GRIP2_3, Q9C0E4
MAGI2_5, Q86UL8 = target: MAGI2_5, Q86UL8
HTRA4, P83105 = target: T4, HTRA4, P83105
NHERF4_2, Q86UT5 = target: NHERF4_2, Q86UT5
CARD11, Q9BXL7 = target: T5, CARD11, Q9BXL7
PICK1, Q9NRD5 = target: PICK1, Q9NRD5
NHERF3_3, Q5T2W1 = target: T6, NHERF3_3, Q5T2W1
MAGI2_4, Q86UL8 = target: MAGI2_4, Q86UL8
GRIP1_2, Q9Y3R0 = target: T7, GRIP1_2, Q9Y3R0
Inadl_6, Q8NI35 = target: Inadl_6, Q8NI35
DLG2_2, Q15700 = target: DLG2_2, Q15700
CASK, O14936 = target: CASK, O14936
HTRA1, Q92743 = target: HTRA1, Q92743
SIPA1L2, Q9P2F8 = target: T8, SIPA1L2, Q9P2F8
LDB3, O75112 = target: LDB3, O75112
NHERF3_4, Q5T2W1 = target: T9, NHERF3_4, Q5T2W1
SNTA1, Q13424 = target: T10, SNTA1, Q13424

Inadl_6, Q8NI35, sequence (Q8NI35 1058-1167): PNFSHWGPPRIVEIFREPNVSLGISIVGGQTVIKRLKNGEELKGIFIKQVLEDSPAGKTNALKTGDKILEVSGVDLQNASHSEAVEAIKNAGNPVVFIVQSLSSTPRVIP
NHERF4_2, Q86UT5, sequence (Q86UT5 220-308): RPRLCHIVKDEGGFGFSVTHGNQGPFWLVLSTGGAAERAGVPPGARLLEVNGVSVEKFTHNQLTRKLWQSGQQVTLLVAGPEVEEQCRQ
CASK, O14936, sequence (O14936 487-570): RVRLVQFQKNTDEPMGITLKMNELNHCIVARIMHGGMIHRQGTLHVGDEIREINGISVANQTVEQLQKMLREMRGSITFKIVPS
PTPN3, P26045, sequence (P26045 505-587): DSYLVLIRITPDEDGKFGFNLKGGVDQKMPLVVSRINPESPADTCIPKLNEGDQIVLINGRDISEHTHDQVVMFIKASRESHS
PICK1, Q9NRD5, sequence (Q9NRD5 17-115): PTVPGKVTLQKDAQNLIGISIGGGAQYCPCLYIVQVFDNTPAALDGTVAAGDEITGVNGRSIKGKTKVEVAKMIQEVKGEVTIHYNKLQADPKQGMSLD
MAGI2_5, Q86UL8, sequence (Q86UL8 915-1017): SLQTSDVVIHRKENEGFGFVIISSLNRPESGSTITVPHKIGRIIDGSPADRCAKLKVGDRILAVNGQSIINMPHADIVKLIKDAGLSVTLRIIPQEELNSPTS
GRIP2_3, Q9C0E4, sequence (Q9C0E4 238-339): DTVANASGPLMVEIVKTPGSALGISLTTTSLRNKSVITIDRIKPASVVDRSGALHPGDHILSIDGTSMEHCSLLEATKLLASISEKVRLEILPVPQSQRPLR
GRIP2_4, Q9C0E4, sequence (Q9C0E4 446-548): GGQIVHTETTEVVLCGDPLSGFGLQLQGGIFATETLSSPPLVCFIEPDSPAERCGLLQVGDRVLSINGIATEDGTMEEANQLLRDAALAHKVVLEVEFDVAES
SCRIB_2, Q14160, sequence (Q14160 857-960): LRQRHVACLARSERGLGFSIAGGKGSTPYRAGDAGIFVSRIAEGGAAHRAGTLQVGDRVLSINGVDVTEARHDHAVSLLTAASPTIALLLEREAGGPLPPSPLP
MAGI2_4, Q86UL8, sequence (Q86UL8 772-865): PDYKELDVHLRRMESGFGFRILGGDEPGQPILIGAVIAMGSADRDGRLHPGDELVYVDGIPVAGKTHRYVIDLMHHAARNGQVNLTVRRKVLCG
MAGI2_3, Q86UL8, sequence (Q86UL8 600-682): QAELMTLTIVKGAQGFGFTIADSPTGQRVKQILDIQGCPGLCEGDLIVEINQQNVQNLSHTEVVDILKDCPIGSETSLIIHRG
LDB3, O75112, sequence (O75112 1-94): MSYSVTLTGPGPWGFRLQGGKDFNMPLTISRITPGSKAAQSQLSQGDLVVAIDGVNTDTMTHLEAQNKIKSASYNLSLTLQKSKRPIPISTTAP
FRMPD2_1, Q68DX3, sequence (Q68DX3 770-861): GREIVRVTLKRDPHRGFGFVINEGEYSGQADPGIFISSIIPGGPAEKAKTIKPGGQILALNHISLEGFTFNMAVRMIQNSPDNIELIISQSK
LNX1_3, Q8TBB1, sequence (Q8TBB1 500-596): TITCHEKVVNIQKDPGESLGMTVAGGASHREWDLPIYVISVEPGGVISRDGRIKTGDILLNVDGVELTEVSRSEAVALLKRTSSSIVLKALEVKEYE
MAST1, Q9Y2H9, sequence (Q9Y2H9 962-1065): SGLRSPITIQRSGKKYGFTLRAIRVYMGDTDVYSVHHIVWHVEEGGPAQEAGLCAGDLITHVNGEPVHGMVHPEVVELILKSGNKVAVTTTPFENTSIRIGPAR
DLG2_2, Q15700, sequence (Q15700 189-283): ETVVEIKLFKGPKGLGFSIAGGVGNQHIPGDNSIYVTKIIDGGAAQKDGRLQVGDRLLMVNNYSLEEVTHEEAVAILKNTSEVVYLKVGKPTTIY
HTRA1, Q92743, sequence (Q92743 360-477): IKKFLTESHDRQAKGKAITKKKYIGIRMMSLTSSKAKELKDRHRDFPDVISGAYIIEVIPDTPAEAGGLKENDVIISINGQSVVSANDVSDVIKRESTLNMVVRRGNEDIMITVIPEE
Inadl_5, Q8NI35, sequence (Q8NI35 673-780): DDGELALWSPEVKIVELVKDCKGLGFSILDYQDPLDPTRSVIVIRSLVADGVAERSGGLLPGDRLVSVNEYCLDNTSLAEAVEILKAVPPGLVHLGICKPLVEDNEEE

Binder | pKd (GRIP2_4, Q9C0E4) | pKd (SCRIB_2, Q14160) | pKd (GOPC, Q9HD26) | pKd (TJP3_3, O95049) | pKd (MAST1, Q9Y2H9) | pKd (PDZD2_2, O15018) | pKd (LNX1_3, Q8TBB1) | pKd (MAGI2_3, Q86UL8) | pKd (PTPN3, P26045) | pKd (SNTG1, Q9NSN8) | pKd (Inadl_5, Q8NI35) | pKd (FRMPD2_1, Q68DX3) | pKd (GRIP2_3, Q9C0E4) | pKd (MAGI2_5, Q86UL8) | pKd (HTRA4, P83105) | pKd (NHERF4_2, Q86UT5) | pKd (CARD11, Q9BXL7) | pKd (PICK1, Q9NRD5) | pKd (NHERF3_3, Q5T2W1) | pKd (MAGI2_4, Q86UL8) | other results
B1 | below the threshold | 4.73 | below the threshold | below the threshold | 4.34 | 4.18 | below the threshold | below the threshold | 4.57 | 5.55 | below the threshold | below the threshold | below the threshold | below the threshold | 3.75 | below the threshold | below the threshold | 4.1 | below the threshold | below the threshold | pKd (GRIP1_2, Q9Y3R0): below the threshold; pKd (Inadl_6, Q8NI35): 3.73; pKd (DLG2_2, Q15700): 4.35; pKd (CASK, O14936): below the threshold; pKd (HTRA1, Q92743): below the threshold; pKd (SIPA1L2, Q9P2F8): below the threshold; pKd (LDB3, O75112): below the threshold; pKd (NHERF3_4, Q5T2W1): below the threshold; pKd (SNTA1, Q13424): 5.71
B2 | below the threshold | below the threshold | below the threshold | below the threshold | 3.85 | 3.68 | below the threshold | below the threshold | below the threshold | below the threshold | below the threshold | below the threshold | below the threshold | below the threshold | below the threshold | below the threshold | below the threshold | below the threshold | below the threshold | below the threshold | pKd (GRIP1_2, Q9Y3R0): below the threshold; pKd (Inadl_6, Q8NI35): below the threshold; pKd (DLG2_2, Q15700): below the threshold; pKd (CASK, O14936): below the threshold; pKd (HTRA1, Q92743): below the threshold; pKd (SIPA1L2, Q9P2F8): below the threshold; pKd (LDB3, O75112): below the threshold; pKd (NHERF3_4, Q5T2W1): below the threshold; pKd (SNTA1, Q13424): below the threshold
